The source of these data is publication PMC11259845, “Potent anti-coronaviral activity of pateamines and new insights into their mode of action”.

Common to all, as to settings: protein: recombinant; tags: N-terminal 6xHis, thrombin site
Series [1] has as its target T1, eIF4A1(19-406) WT (human, UniProt P60842 19-406). The experiment in a line: thermal shift assay; PatA, AMP-PNP, 5 mM Mg2+; TSA: 5 uM eIF4A1(19-406), 50 uM RNA, 1 mM AMP-PNP, 100 uM inhibitor, 75 uM SYPRO Orange, 20 mM HEPES-KOH pH 7.5, 100 mM KCl, 5 mM MgCl2, 1 mM DTT, 10% glycerol; melt 10-95 C.
For series [2], the target named is T1, eIF4A1(19-406) WT. The experiment in a line: thermal shift assay; silvestrol, AMP-PNP, 5 mM Mg2+; TSA: 5 uM eIF4A1(19-406), 50 uM RNA, 1 mM AMP-PNP, 100 uM inhibitor, 75 uM SYPRO Orange, 20 mM HEPES-KOH pH 7.5, 100 mM KCl, 5 mM MgCl2, 1 mM DTT, 10% glycerol; melt 10-95 C.
The target of series [3] is T1, eIF4A1(19-406) WT. The experiment in a line: thermal shift assay; DMDAPatA, AMP-PNP, 5 mM Mg2+; TSA: 5 uM eIF4A1(19-406), 50 uM RNA, 1 mM AMP-PNP, 100 uM inhibitor, 75 uM SYPRO Orange, 20 mM HEPES-KOH pH 7.5, 100 mM KCl, 5 mM MgCl2, 1 mM DTT, 10% glycerol; melt 10-95 C.

T1 sequence (P60842 19-406): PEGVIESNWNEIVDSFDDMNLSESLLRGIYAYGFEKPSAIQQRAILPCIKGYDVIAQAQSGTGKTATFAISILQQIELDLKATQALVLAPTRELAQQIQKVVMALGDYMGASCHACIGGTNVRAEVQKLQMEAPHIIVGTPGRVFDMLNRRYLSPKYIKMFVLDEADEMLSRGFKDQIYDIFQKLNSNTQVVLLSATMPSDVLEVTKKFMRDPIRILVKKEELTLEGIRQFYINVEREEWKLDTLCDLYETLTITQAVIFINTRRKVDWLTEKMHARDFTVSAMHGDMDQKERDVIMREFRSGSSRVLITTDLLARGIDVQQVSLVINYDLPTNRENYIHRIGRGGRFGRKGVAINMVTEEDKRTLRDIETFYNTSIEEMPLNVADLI

B1: (AG)5 (ssRNA)
RNA: AGAGAGAGAG
In the case of B1, the binding result with eIF4A1(19-406) WT [1] and with eIF4A1(19-406) WT [2] was “binds” throughout.

B2: (GA)5 (ssRNA)
RNA: GAGAGAGAGA
As to B2, the binding result with eIF4A1(19-406) WT [1] and with eIF4A1(19-406) WT [2] was “binds” each time.

B3: (UG)5 (ssRNA)
RNA: UGUGUGUGUG
As to B3, the binding result with eIF4A1(19-406) WT [3] and with eIF4A1(19-406) WT [1] was “binds” each time.
